Source: article PMC2777315 (PLoS Pathogens, 2009)

T1: GST-IlsA fusion protein (IlsA, iron-regulated leucine-rich surface protein of Bacillus cereus ATCC 14579) (Bacillus cereus ATCC 14579, UniProt Q81G77 1-760)
T1 construct: also called IlsA-GST; purified IlsA; source: E. coli BL-21, purified (pellet solubilised in 8 M urea, dialysed, glutathione Sepharose 4B)
T1 sequence: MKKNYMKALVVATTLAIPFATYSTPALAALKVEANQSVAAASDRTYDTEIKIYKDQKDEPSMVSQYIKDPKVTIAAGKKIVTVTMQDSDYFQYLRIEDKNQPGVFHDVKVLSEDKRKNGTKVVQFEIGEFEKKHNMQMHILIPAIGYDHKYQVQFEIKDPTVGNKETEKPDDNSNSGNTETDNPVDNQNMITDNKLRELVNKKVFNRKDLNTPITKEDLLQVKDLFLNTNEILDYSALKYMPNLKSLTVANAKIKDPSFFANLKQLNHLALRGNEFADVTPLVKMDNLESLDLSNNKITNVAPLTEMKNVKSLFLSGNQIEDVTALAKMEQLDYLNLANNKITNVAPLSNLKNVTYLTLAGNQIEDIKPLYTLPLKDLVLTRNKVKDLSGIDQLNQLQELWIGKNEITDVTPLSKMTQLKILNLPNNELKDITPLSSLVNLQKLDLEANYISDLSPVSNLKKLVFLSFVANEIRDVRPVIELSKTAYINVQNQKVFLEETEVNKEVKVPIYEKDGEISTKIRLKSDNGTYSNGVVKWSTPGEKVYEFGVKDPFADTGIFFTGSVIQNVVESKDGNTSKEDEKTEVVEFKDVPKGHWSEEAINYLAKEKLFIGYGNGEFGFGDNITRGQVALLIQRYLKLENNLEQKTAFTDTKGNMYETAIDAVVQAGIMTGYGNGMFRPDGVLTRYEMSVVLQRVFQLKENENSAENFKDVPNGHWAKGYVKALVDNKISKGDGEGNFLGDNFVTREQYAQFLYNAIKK

B1: ferritin (complex)
chain 1: MSSQIRQNYSTEVEAAVNRLVNLYLRASYTYLSLGFYFDRDDVALEGVCHFFRELAEEKREGAERLLKMQNQRGGRALFQDLQKPSQDEWGTTLDAMKAAIVLEKSLNQALLDLHALGSAQADPHLCDFLESHFLDEEVKLIKKMGDHLTNIQRLVGSQAGLGEYLFERLTLKHD
chain 2: MTTAFPSQVRQNYHQDSEAAINRQINLELHASYVYLSMSFYFDRDDVALKNFAKYFLHQSHEEREHAEKLMKLQNQRGGRIFLQDIKKPDQDDWENGLKAMECALHLEKNVNESLLELHKLATDKNDPHLCDFLETHYLNEQVKAIKELGDHVTNLRRMGAPESGMAEYLFDKHTLGECDES
notes: source: bought: Sigma-Aldrich
B2: hemoglobin (complex)
chain 1: not shown
chain 2: not shown

Tests used:
Settings in all cases: both partners purified
[1] = molecular target: T1, GST-IlsA fusion protein (IlsA, …); assay: SPR
[2] = molecular target: T1, GST-IlsA fusion protein (IlsA, …); assay: ELISA
[3] = molecular target: T1, GST-IlsA fusion protein (IlsA, …); assay: ELISA; hemoglobin or ferritin coated on plates in increasing amounts (0-180 nM), 0.1 M phosphate buffer pH 7.4; IlsA added at 30 nM, 2 h at 37°C; detected with polyclonal anti-IlsA; Kd estimated with Origin
[4] = molecular target: T1, GST-IlsA fusion protein (IlsA, …); assay: SPR; BIAcore 3000; GST-IlsA captured by anti-GST antibody on a CM5 chip; ligands injected at 200 nM for 8 min, dissociation 10 min; 0.1 M phosphate buffer pH 7.4; 20°C; data did not fit a 1:1 model, indicative koff from the dissociation phase only

| Binder | koff [1] [s⁻¹] | Kd [2] [nM] | Kd [3] [nM] | koff [4] [s⁻¹] |
| --- | --- | --- | --- | --- |
| B1 | 0.00171 | 10 ± 3 |  |  |
| B2 |  |  | 3 ± 1 | 0.00148 |
